The target of this experiment is T1, purified integrin αIIbβ3 (R&D Systems #7148-A2-025) (UniProt P08514 32-993; P05106 27-718).
T1 construct: One protein preparation was tested in two states; also called GPIIb-IIIa; CD41/CD61
Briefly: SPR single-cycle kinetics, sEng-Strep on SA chip, activated Ca2+/Mn2+-loaded integrin as analyte, 25° C.; apparent value; activated Ca2+/Mn2+-loaded integrin αIIbβ3 as analyte. The protocol:
The association between sEng-Strep-tag® II and integrin αIIbβ3 was analyzed by surface plasmon resonance (SPR) on a streptavidin (SA) biosensor (Cytiva) at 25° C. First, we immobilized resonance units (RU) of sEng-Strep-tag® II onto the test flow cell of a SA chip through the C-terminal StrepII-tag to provide a sEng concentration on the surface of ˜10 μM. The reference flow cell was not modified. […] Polysorbate 20 (PS20), either supplemented with 1 mM MnCl2 and 1 mM CaCl2 or after extensive dialysis against EDTA to remove residual divalent cations in the protein preparation. Integrin αIIbβ3 (25 μg per experiment) was resuspended to 0.2 mg/ml (˜1 μM) in the appropriate running buffer before use. Analysis was performed with the BiaEvaluation version 3.0.2 software (Cytiva) and the Anabel webserver.
To investigate this interaction, we analyzed the association between sEng-Strep-tag® II (sEng-Strep) and integrin αIIbβ3 by surface plasmon resonance (SPR) on a streptavidin (SA) biosensor (Cytiva) at 25° C. using single-cycle kinetics. When non-activated integrin αIIbβ3 was flowed over surface-immobilized sEng-Strep, no binding was detected (FIG. 5).

B1: sEng-Strep-tag II (streptavidin-tagged construct of soluble endoglin) (receptor, human, UniProt P17813 26-586, looked up)
chain: ETVHCDLQPVGPERGEVTYTTSQVSKGCVAQAPNAILEVHVLFLEFPTGPSQLELTLQASKQNGTWPREVLLVLSVNSSVFLHLQALGIPLHLAYNSSLVTFQEPPGVNTTELPSFPKTQILEWAAERGPITSAAELNDPQSILLRLGQAQGSLSFCMLEASQDMGRTLEWRPRTPALVRGCHLEGVAGHKEAHILRVLPGHSAGPRTVTVKVELSCAPGDLDAVLILQGPPYVSWLIDANHNMQIWTTGEYSFKIFPEKNIRGFKLPDTPQGLLGEARMLNASIVASFVELPLASIVSLHASSCGGRLQTSPAPIQTTPPKDTCSPELLMSLIQTKCADDAMTLVLKKELVAHLKCTITGLTFWDPSCEAEDRGDKFVLRSAYSSCGMQVSASMISNEAVVNILSSSSPQRKKVHCLNMDSLSFQLGLYLSPHFLQASNTIEPGQQSFVQVRVSPSVSEFLLQLDSCHLDLGPEGGTVELIQGRAAKGNCVSLLSPSPEGDPRFSFLLHFYTVPIPKTGTLSCTVALRPKTGSQDQEVHRTVFMRLNIISPDLSGCTSKG
notes: extracellular domain; Immobilised on a streptavidin (SA) chip through the C-terminal StrepII-tag; not shown: C-terminal Strep-tag II
The koff is the first-order rate constant of dissociation. B1: the Kd is below 9 nM and the off-rate constant (koff) is below 0.008 s⁻¹.

(Values after patent publication US20250099540A1 (INSERM INSTITUT NATIONAL DE LA SANT ET DE LA RECHERCHE M …, published 2025).)
